Measurements taken from US20230142800A1 (COMMISSARIAT A L ENERGIE ATOMIQUE ET AUX ENERGIES …, published 2023).

How the values were obtained:
[1] = biological target: T1, biotinylated TNF alpha (human (definition in paragraph 32)); the …, UniProt P01375 77-233, biotinylated (site not stated)); assay: yeast display FACS sorting on biotinylated TNF alpha, NGS enrichment, CDRH2 library
T1 construct: Used for FACS sorting of yeast libraries and immobilised on streptavidin sensors for BLI; also called TNFα; Tumor Necrosis Factor Alpha
T1 sequence (P01375 77-233 limits assumed): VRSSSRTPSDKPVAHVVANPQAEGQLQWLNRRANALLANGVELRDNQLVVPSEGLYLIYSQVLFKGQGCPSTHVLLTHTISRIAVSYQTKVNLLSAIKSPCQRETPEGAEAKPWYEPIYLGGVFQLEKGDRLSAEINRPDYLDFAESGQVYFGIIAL

[2] = biological target: T1, biotinylated TNF alpha; assay: yeast display MACS and FACS sorting on biotinylated TNF alpha, NGS enrichment, CDRH3 library
Text: The second selection phase consists of selecting the mutant by the dissociation speed thereof.
The selection of DMS libraries was done in a single step by FACS on an ARIA III device (Becton Dickinson, Franklin Lakes, United States). […] After washing the cells with PBS 0.1% BSA, they were marked by using an APC coupled antibody directed against the OK domain (Thermo Fisher Scientific, Waltham, United States; dilution 1:100) and a PE coupled streptavidin (Thermo Fisher Scientific, Waltham, United States; dilution 1:100). The selection of libraries was done by means of rectangular sorting window containing 5% of the clones of interest according to the optimal parameters described by Kowalski et al. PLoS One 10, 1-23 (2015)). The selection of de-immunization libraries was done in several steps. […] The libraries underwent different steps of sorting by FACS.

| Binder | Enrichment [1] | Enrichment [2] |
| --- | --- | --- |
| CDRH3 library mutant VYYCAKTRYTPT (Fab, V domains shown) VH: EVQLVESGGGLVQPGRSLRLSCAASGFTFDDYAMHWVRQAPGKGLEWVSAITWNSGHIDYADSVEGRFTISRDNAKNSLYLQMNSLRAEDTAVYYCAKTRYTPTASSLDYWGQGTLVTVSS VL: not shown |  | 80800 |
| CDRH3 library mutant VYYCAKAHHLPT (Fab, V domains shown) VH: EVQLVESGGGLVQPGRSLRLSCAASGFTFDDYAMHWVRQAPGKGLEWVSAITWNSGHIDYADSVEGRFTISRDNAKNSLYLQMNSLRAEDTAVYYCAKAHHLPTASSLDYWGQGTLVTVSS VL: not shown |  | 122000 |
| CDRH3 library mutant VYYCAKTKYLPS (Fab, V domains shown) VH: EVQLVESGGGLVQPGRSLRLSCAASGFTFDDYAMHWVRQAPGKGLEWVSAITWNSGHIDYADSVEGRFTISRDNAKNSLYLQMNSLRAEDTAVYYCAKTKYLPSASSLDYWGQGTLVTVSS VL: not shown |  | 87100 |
| CDRH3 library mutant VYYCAKVKYLPS (Fab, V domains shown) VH: EVQLVESGGGLVQPGRSLRLSCAASGFTFDDYAMHWVRQAPGKGLEWVSAITWNSGHIDYADSVEGRFTISRDNAKNSLYLQMNSLRAEDTAVYYCAKVKYLPSASSLDYWGQGTLVTVSS VL: not shown |  | 71900 |
| CDRH3 library mutant LYYCAKVKYLPT (Fab, V domains shown) VH: EVQLVESGGGLVQPGRSLRLSCAASGFTFDDYAMHWVRQAPGKGLEWVSAITWNSGHIDYADSVEGRFTISRDNAKNSLYLQMNSLRAEDTALYYCAKVKYLPTASSLDYWGQGTLVTVSS VL: not shown |  | 251000 |
| CDRH3 library mutant LYYCAKTRYLPS (Fab, V domains shown) VH: EVQLVESGGGLVQPGRSLRLSCAASGFTFDDYAMHWVRQAPGKGLEWVSAITWNSGHIDYADSVEGRFTISRDNAKNSLYLQMNSLRAEDTALYYCAKTRYLPSASSLDYWGQGTLVTVSS VL: not shown |  | 63500 |
| CDRH3 library mutant LYYCAKTTYLPS (Fab, V domains shown) VH: EVQLVESGGGLVQPGRSLRLSCAASGFTFDDYAMHWVRQAPGKGLEWVSAITWNSGHIDYADSVEGRFTISRDNAKNSLYLQMNSLRAEDTALYYCAKTTYLPSASSLDYWGQGTLVTVSS VL: not shown |  | 151000 |
| CDRH3 library mutant VYYCAKTTYLPS (Fab, V domains shown) VH: EVQLVESGGGLVQPGRSLRLSCAASGFTFDDYAMHWVRQAPGKGLEWVSAITWNSGHIDYADSVEGRFTISRDNAKNSLYLQMNSLRAEDTAVYYCAKTTYLPSASSLDYWGQGTLVTVSS VL: not shown |  | 149000 |
| CDRH3 library mutant VYYCAKVKYLPP (Fab, V domains shown) VH: EVQLVESGGGLVQPGRSLRLSCAASGFTFDDYAMHWVRQAPGKGLEWVSAITWNSGHIDYADSVEGRFTISRDNAKNSLYLQMNSLRAEDTAVYYCAKVKYLPPASSLDYWGQGTLVTVSS VL: not shown |  | 61600 |
| CDRH3 library mutant VYYCAKVTYLPS (Fab, V domains shown) VH: EVQLVESGGGLVQPGRSLRLSCAASGFTFDDYAMHWVRQAPGKGLEWVSAITWNSGHIDYADSVEGRFTISRDNAKNSLYLQMNSLRAEDTAVYYCAKVTYLPSASSLDYWGQGTLVTVSS VL: not shown |  | 241000 |
| CDRH3 library mutant VYYCAKTRYLPT (Fab, V domains shown) VH: EVQLVESGGGLVQPGRSLRLSCAASGFTFDDYAMHWVRQAPGKGLEWVSAITWNSGHIDYADSVEGRFTISRDNAKNSLYLQMNSLRAEDTAVYYCAKTRYLPTASSLDYWGQGTLVTVSS VL: not shown |  | 707000 |
| CDRH3 library mutant VYYCAKAKYLPT (Fab, V domains shown) VH: EVQLVESGGGLVQPGRSLRLSCAASGFTFDDYAMHWVRQAPGKGLEWVSAITWNSGHIDYADSVEGRFTISRDNAKNSLYLQMNSLRAEDTAVYYCAKAKYLPTASSLDYWGQGTLVTVSS VL: not shown |  | 163000 |
| CDRH3 library mutant LYYCAKTKYLPS (Fab, V domains shown) VH: EVQLVESGGGLVQPGRSLRLSCAASGFTFDDYAMHWVRQAPGKGLEWVSAITWNSGHIDYADSVEGRFTISRDNAKNSLYLQMNSLRAEDTALYYCAKTKYLPSASSLDYWGQGTLVTVSS VL: not shown |  | 65400 |
| CDRH3 library mutant LYYCAKTNYLPT (Fab, V domains shown) VH: EVQLVESGGGLVQPGRSLRLSCAASGFTFDDYAMHWVRQAPGKGLEWVSAITWNSGHIDYADSVEGRFTISRDNAKNSLYLQMNSLRAEDTALYYCAKTNYLPTASSLDYWGQGTLVTVSS VL: not shown |  | 448000 |
| CDRH3 library mutant LYYCAKTKYLPT (Fab, V domains shown) VH: EVQLVESGGGLVQPGRSLRLSCAASGFTFDDYAMHWVRQAPGKGLEWVSAITWNSGHIDYADSVEGRFTISRDNAKNSLYLQMNSLRAEDTALYYCAKTKYLPTASSLDYWGQGTLVTVSS VL: not shown |  | 97400 |
| CDRH3 library mutant VYYCAKTNYLPT (Fab, V domains shown) VH: EVQLVESGGGLVQPGRSLRLSCAASGFTFDDYAMHWVRQAPGKGLEWVSAITWNSGHIDYADSVEGRFTISRDNAKNSLYLQMNSLRAEDTAVYYCAKTNYLPTASSLDYWGQGTLVTVSS VL: not shown |  | 51900 |
| CDRH3 library mutant VYYCAKTTYLPT (Fab, V domains shown) VH: EVQLVESGGGLVQPGRSLRLSCAASGFTFDDYAMHWVRQAPGKGLEWVSAITWNSGHIDYADSVEGRFTISRDNAKNSLYLQMNSLRAEDTAVYYCAKTTYLPTASSLDYWGQGTLVTVSS VL: not shown |  | 1.29e+06 |

Other lines, results leading:

| Enrichment [1] | Enrichment [2] | Binder |
| --- | --- | --- |
| 119 |  | CDRH2 library mutant AAIAWNGGHH (Fab, V domains shown) VH: EVQLVESGGGLVQPGRSLRLSCAASGFTFDDYAMHWVRQAPGKGLEWVAAIAWNGGHHDYADSVEGRFTISRDNAKNSLYLQMNSLRAEDTAVYYCAKVSYLSTASSLDYWGQGTLVTVSS VL: not shown |
|  | 371000 | CDRH3 library mutant VYYCAKTSYLPS (Fab, V domains shown) VH: EVQLVESGGGLVQPGRSLRLSCAASGFTFDDYAMHWVRQAPGKGLEWVSAITWNSGHIDYADSVEGRFTISRDNAKNSLYLQMNSLRAEDTAVYYCAKTSYLPSASSLDYWGQGTLVTVSS VL: not shown |
|  | 62000 | CDRH3 library mutant VYYCAKVAYLPS (Fab, V domains shown) VH: EVQLVESGGGLVQPGRSLRLSCAASGFTFDDYAMHWVRQAPGKGLEWVSAITWNSGHIDYADSVEGRFTISRDNAKNSLYLQMNSLRAEDTAVYYCAKVAYLPSASSLDYWGQGTLVTVSS VL: not shown |
|  | 110000 | CDRH3 library mutant LYYCAKVKYTPT (Fab, V domains shown) VH: EVQLVESGGGLVQPGRSLRLSCAASGFTFDDYAMHWVRQAPGKGLEWVSAITWNSGHIDYADSVEGRFTISRDNAKNSLYLQMNSLRAEDTALYYCAKVKYTPTASSLDYWGQGTLVTVSS VL: not shown |
|  | 1.06e+06 | CDRH3 library mutant VYYCAKTKYLPT (Fab, V domains shown) VH: EVQLVESGGGLVQPGRSLRLSCAASGFTFDDYAMHWVRQAPGKGLEWVSAITWNSGHIDYADSVEGRFTISRDNAKNSLYLQMNSLRAEDTAVYYCAKTKYLPTASSLDYWGQGTLVTVSS VL: not shown |
|  | 105000 | CDRH3 library mutant VYYCAKSKYLPT (Fab, V domains shown) VH: EVQLVESGGGLVQPGRSLRLSCAASGFTFDDYAMHWVRQAPGKGLEWVSAITWNSGHIDYADSVEGRFTISRDNAKNSLYLQMNSLRAEDTAVYYCAKSKYLPTASSLDYWGQGTLVTVSS VL: not shown |
|  | 99200 | CDRH3 library mutant VYYCAKVTYTPS (Fab, V domains shown) VH: EVQLVESGGGLVQPGRSLRLSCAASGFTFDDYAMHWVRQAPGKGLEWVSAITWNSGHIDYADSVEGRFTISRDNAKNSLYLQMNSLRAEDTAVYYCAKVTYTPSASSLDYWGQGTLVTVSS VL: not shown |
|  | 61200 | CDRH3 library mutant VYYCAKTHYLPT (Fab, V domains shown) VH: EVQLVESGGGLVQPGRSLRLSCAASGFTFDDYAMHWVRQAPGKGLEWVSAITWNSGHIDYADSVEGRFTISRDNAKNSLYLQMNSLRAEDTAVYYCAKTHYLPTASSLDYWGQGTLVTVSS VL: not shown |
|  | 54100 | CDRH3 library mutant LYYCAKTTYLPT (Fab, V domains shown) VH: EVQLVESGGGLVQPGRSLRLSCAASGFTFDDYAMHWVRQAPGKGLEWVSAITWNSGHIDYADSVEGRFTISRDNAKNSLYLQMNSLRAEDTALYYCAKTTYLPTASSLDYWGQGTLVTVSS VL: not shown |
|  | 188000 | CDRH3 library mutant LYYCAKVKYLPS (Fab, V domains shown) VH: EVQLVESGGGLVQPGRSLRLSCAASGFTFDDYAMHWVRQAPGKGLEWVSAITWNSGHIDYADSVEGRFTISRDNAKNSLYLQMNSLRAEDTALYYCAKVKYLPSASSLDYWGQGTLVTVSS VL: not shown |
| 109 |  | CDRH2 library mutant AAIAWNGGHQ (Fab, V domains shown) VH: EVQLVESGGGLVQPGRSLRLSCAASGFTFDDYAMHWVRQAPGKGLEWVAAIAWNGGHQDYADSVEGRFTISRDNAKNSLYLQMNSLRAEDTAVYYCAKVSYLSTASSLDYWGQGTLVTVSS VL: not shown |
|  | 59400 | CDRH3 library mutant LYYCAKTRYLPT (Fab, V domains shown) VH: EVQLVESGGGLVQPGRSLRLSCAASGFTFDDYAMHWVRQAPGKGLEWVSAITWNSGHIDYADSVEGRFTISRDNAKNSLYLQMNSLRAEDTALYYCAKTRYLPTASSLDYWGQGTLVTVSS VL: not shown |
|  | 100000 | CDRH3 library mutant VYYCAKTGYLPT (Fab, V domains shown) VH: EVQLVESGGGLVQPGRSLRLSCAASGFTFDDYAMHWVRQAPGKGLEWVSAITWNSGHIDYADSVEGRFTISRDNAKNSLYLQMNSLRAEDTAVYYCAKTGYLPTASSLDYWGQGTLVTVSS VL: not shown |
|  | 81400 | CDRH3 library mutant VYYCAKVKYLPA (Fab, V domains shown) VH: EVQLVESGGGLVQPGRSLRLSCAASGFTFDDYAMHWVRQAPGKGLEWVSAITWNSGHIDYADSVEGRFTISRDNAKNSLYLQMNSLRAEDTAVYYCAKVKYLPAASSLDYWGQGTLVTVSS VL: not shown |
